Measured values as given in patent publication US20050152898A1 (BIOVATION, published 2005).

Target: T1, CD52 human leukocyte antigen (human, UniProt P31358 25-36)
T1 construct: whole, on cells; also called CD52 antigen
T1 chain (looked up): GQNDTSQTSSPS
Assay: FACS on HUT-78 cells (CD52+), FITC anti-human IgG Fc, median fluorescence, 4-parameter fit; titre = 50% of maximum binding
Description: Human T-cell lymphoma cell line HUT-78 is CD52 positive and was used to assess binding of the modified antibodies of the present invention. In the present example, different concentrations of test antibody were incubated with the cells and the amount of bound antibody was assessed following incubation with a fluorescent-labelled reporter reagent. The reporter is measured using a fluorescence activated cell sorter (FACS).
For detection, the cells were incubated for 1 hour on ice with a 1:1000 dilution of FITC-labelled anti-human IgG Fc domain. This reagent is a goat anti-human IgG (Fc specific) obtained from Sigma (Poole, UK). The cells were washed as previously and re-suspended in 100 μl of PBS/2% FBS and transferred to 4 ml FACS tubes (Becton Dickinson) containing 900 μl of PBS/2% FBS/Propidium Iodide (1:1000). The cells were analysed using a conventional Becton Dickenson FACS Calibur instrument.
The binding of the test and control antibodies was determined using the Median Fluorescence value. The saturating concentration of antibody was determined from plots of the Median Fluorescence—Zero Antibody Median Fluorescence versus Concentration of antibody. The binding curves were fitted to a logistic 4 parameter sigmoidal equation using SigmaPlot, giving an excellent fit with 95% confidence levels.

B1: DIVH2/DIVK2 (antibody, human IgG1, V domains shown)
VH: EVQLLESGGGLVQPGGSLRLSCAGSGFTFTDFYMNWIRQPPGKAPEWIGFIRDKAKGYTTEYNPSVKGRFTISRDNSKNTLYLQMNSLRAEDTAVYYCAREGHTAAPFDYWGQGTLVTVSS
VL: DIQMTQSPSSLSASVGDRVTITCKASQNIDKYLNWYQQKPGKAPKLLIYNTNNLQTGVPSRFSGSGSGTDFTLTISSLQPEDIATYYCLQHISRPRTFGTGTKLELK
notes: also called DIVH2IDIVK2; DIVHv2/DIVKv2
Question: B1 was tested. Which EC50 did it give?
Answer: 3.7 µg/mL

B2: DIVH1/DIVK1 (antibody, human IgG1, V domains shown)
VH: EVQLLESGGGLVQPGGSLRLSCAGSGFTFTDFYMNWVRQAPGKGLEWVGFIRDKAKGYTTEYNPSVKGRFTISRDNSKNTLYLQMNSLRAEDTAVYYCAREGHTAAPFDYWGQGTLVTVSS
VL: DIQMTQSPSSLSASVGDRVTITCRASQNIDKYLNWYQQKPGKAPKSLIYNTNNLQSGVPSRFSGSGSGTDFTLTISSLQPEDIATYYCLQHISRPRTFGTGTKLELK
notes: also called DIVHv1/DIVKv1
Question: With B2 as the binder, how does the EC50 read?
Answer: 2.99 µg/mL

B3: DIVH1/DIVK2 (antibody, human IgG1, V domains shown)
VH: EVQLLESGGGLVQPGGSLRLSCAGSGFTFTDFYMNWVRQAPGKGLEWVGFIRDKAKGYTTEYNPSVKGRFTISRDNSKNTLYLQMNSLRAEDTAVYYCAREGHTAAPFDYWGQGTLVTVSS
VL: DIQMTQSPSSLSASVGDRVTITCKASQNIDKYLNWYQQKPGKAPKLLIYNTNNLQTGVPSRFSGSGSGTDFTLTISSLQPEDIATYYCLQHISRPRTFGTGTKLELK
notes: also called DIVHv1/DIVKv2
Question: With B3 as the binder, how does the EC50 read?
Answer: 1.66 µg/mL

B4: DIVH1/DIVK3 (antibody, human IgG1, V domains shown)
VH: EVQLLESGGGLVQPGGSLRLSCAGSGFTFTDFYMNWVRQAPGKGLEWVGFIRDKAKGYTTEYNPSVKGRFTISRDNSKNTLYLQMNSLRAEDTAVYYCAREGHTAAPFDYWGQGTLVTVSS
VL: DIQMTQSPSSLSASVGDRVTITCRASQNIDKYLNWYQQKPGKAPKLLIYNTNNLQSGVPSRFSGSGSGTDFTLTISSLQPEDIATYYCLQHISRPRTFGTGTKLELK
notes: also called DIVHv1/DIVKv3
Question: B4 was tested. Which EC50 did it give?
Answer: 1.71 µg/mL

B5: DIVH1/DIVK4 (antibody, human IgG1, V domains shown)
VH: EVQLLESGGGLVQPGGSLRLSCAGSGFTFTDFYMNWVRQAPGKGLEWVGFIRDKAKGYTTEYNPSVKGRFTISRDNSKNTLYLQMNSLRAEDTAVYYCAREGHTAAPFDYWGQGTLVTVSS
VL: DIQMTQSPSSLSASVGDRVTITCKASQNIDKYLNWYQQKPGKAPKSLIYNTNNLQTGVPSRFSGSGSGTDFTLTISSLQPEDIATYYCLQHISRPRTFGTGTKLELK
notes: also called DIVHv1/DIVKv4
Question: How did the EC50 turn out when B5 was run?
Answer: 3.45 µg/mL

B6: DIVH1/DIVK5 (antibody, human IgG1, V domains shown)
VH: EVQLLESGGGLVQPGGSLRLSCAGSGFTFTDFYMNWVRQAPGKGLEWVGFIRDKAKGYTTEYNPSVKGRFTISRDNSKNTLYLQMNSLRAEDTAVYYCAREGHTAAPFDYWGQGTLVTVSS
VL: DIQMTQSPSSLSASVGDRVTITCKASQNIDKYLNWYQQKPGKSPKLLIYNTNNLQTGVPSRFSGSGSGTDFTLTISSLQPEDIATYYCLQHISRPRTFGTGTKLELK
notes: also called DIVHv1/DIVKv5
Question: For B6, which EC50 is on record?
Answer: 1.85 µg/mL

B7: DIVH2/DIVK1 (antibody, human IgG1, V domains shown)
VH: EVQLLESGGGLVQPGGSLRLSCAGSGFTFTDFYMNWIRQPPGKAPEWIGFIRDKAKGYTTEYNPSVKGRFTISRDNSKNTLYLQMNSLRAEDTAVYYCAREGHTAAPFDYWGQGTLVTVSS
VL: DIQMTQSPSSLSASVGDRVTITCRASQNIDKYLNWYQQKPGKAPKSLIYNTNNLQSGVPSRFSGSGSGTDFTLTISSLQPEDIATYYCLQHISRPRTFGTGTKLELK
notes: also called DIVHv2/DIVKv1
Question: For B7, which EC50 is on record?
Answer: 5.56 µg/mL

B8: DIVH2/DIVK3 (antibody, human IgG1, V domains shown)
VH: EVQLLESGGGLVQPGGSLRLSCAGSGFTFTDFYMNWIRQPPGKAPEWIGFIRDKAKGYTTEYNPSVKGRFTISRDNSKNTLYLQMNSLRAEDTAVYYCAREGHTAAPFDYWGQGTLVTVSS
VL: DIQMTQSPSSLSASVGDRVTITCRASQNIDKYLNWYQQKPGKAPKLLIYNTNNLQSGVPSRFSGSGSGTDFTLTISSLQPEDIATYYCLQHISRPRTFGTGTKLELK
notes: also called DIVHv2/DIVKv3
Question: For B8, which EC50 is on record?
Answer: 3.89 µg/mL

B9: DIVH2/DIVK4 (antibody, human IgG1, V domains shown)
VH: EVQLLESGGGLVQPGGSLRLSCAGSGFTFTDFYMNWIRQPPGKAPEWIGFIRDKAKGYTTEYNPSVKGRFTISRDNSKNTLYLQMNSLRAEDTAVYYCAREGHTAAPFDYWGQGTLVTVSS
VL: DIQMTQSPSSLSASVGDRVTITCKASQNIDKYLNWYQQKPGKAPKSLIYNTNNLQTGVPSRFSGSGSGTDFTLTISSLQPEDIATYYCLQHISRPRTFGTGTKLELK
notes: also called DIVHv2/DIVKv4
Question: Which EC50 does the source give for B9 here?
Answer: 6.21 µg/mL

B10: DIVH2/DIVK5 (antibody, human IgG1, V domains shown)
VH: EVQLLESGGGLVQPGGSLRLSCAGSGFTFTDFYMNWIRQPPGKAPEWIGFIRDKAKGYTTEYNPSVKGRFTISRDNSKNTLYLQMNSLRAEDTAVYYCAREGHTAAPFDYWGQGTLVTVSS
VL: DIQMTQSPSSLSASVGDRVTITCKASQNIDKYLNWYQQKPGKSPKLLIYNTNNLQTGVPSRFSGSGSGTDFTLTISSLQPEDIATYYCLQHISRPRTFGTGTKLELK
notes: also called DIVHv2/DIVKv5; CAMPATH-1G DIVHv2/DIVKv5
Question: Which EC50 does the source give for B10 here?
Answer: 1.18 µg/mL

B11: DIVH3/DIVK2 (antibody, human IgG1, V domains shown)
VH: EVKLQESGGGLVQPGGSMRISCSGSGFTFTDFYMNWIRQPPGKGPEWIGFIRDKAKGYTTEYNPSVKGRFTISRDNTQNTLHLQANTLRAEDTAVYYCAREGHTAAPFDYWGQGTTVTVSS
VL: DIQMTQSPSSLSASVGDRVTITCKASQNIDKYLNWYQQKPGKAPKLLIYNTNNLQTGVPSRFSGSGSGTDFTLTISSLQPEDIATYYCLQHISRPRTFGTGTKLELK
notes: also called DIVHv3/DIVKv2
Question: For B11, which EC50 is on record?
Answer: 17.8 µg/mL

B12: DIVH4/DIVK1 (antibody, human IgG1, V domains shown)
VH: EVQLLESGGGLVQPGGSLRLSCAGSGFTFTDFYMNWVRQAPGKGLEWVGFIRDKAKGYTTEYNPSVKGRFTISRDNAKNSLYLQMNSLRAEDTAVYYCAREGHTAAPFDYWGQGTLVTVSS
VL: DIQMTQSPSSLSASVGDRVTITCRASQNIDKYLNWYQQKPGKAPKSLIYNTNNLQSGVPSRFSGSGSGTDFTLTISSLQPEDIATYYCLQHISRPRTFGTGTKLELK
notes: also called DIVHv4/DIVKv1
Question: For B12, which EC50 is on record?
Answer: 4.43 µg/mL

B13: DIVH4/DIVK2 (antibody, human IgG1, V domains shown)
VH: EVQLLESGGGLVQPGGSLRLSCAGSGFTFTDFYMNWVRQAPGKGLEWVGFIRDKAKGYTTEYNPSVKGRFTISRDNAKNSLYLQMNSLRAEDTAVYYCAREGHTAAPFDYWGQGTLVTVSS
VL: DIQMTQSPSSLSASVGDRVTITCKASQNIDKYLNWYQQKPGKAPKLLIYNTNNLQTGVPSRFSGSGSGTDFTLTISSLQPEDIATYYCLQHISRPRTFGTGTKLELK
notes: also called DIVHv4/DIVKv2
Question: For B13, which EC50 is on record?
Answer: 1.59 µg/mL

B14: DIVH4/DIVK3 (antibody, human IgG1, V domains shown)
VH: EVQLLESGGGLVQPGGSLRLSCAGSGFTFTDFYMNWVRQAPGKGLEWVGFIRDKAKGYTTEYNPSVKGRFTISRDNAKNSLYLQMNSLRAEDTAVYYCAREGHTAAPFDYWGQGTLVTVSS
VL: DIQMTQSPSSLSASVGDRVTITCRASQNIDKYLNWYQQKPGKAPKLLIYNTNNLQSGVPSRFSGSGSGTDFTLTISSLQPEDIATYYCLQHISRPRTFGTGTKLELK
notes: also called DIVHv4/DIVKv3
Question: How did the EC50 turn out when B14 was run?
Answer: 2.28 µg/mL

B15: DIVH4/DIVK4 (antibody, human IgG1, V domains shown)
VH: EVQLLESGGGLVQPGGSLRLSCAGSGFTFTDFYMNWVRQAPGKGLEWVGFIRDKAKGYTTEYNPSVKGRFTISRDNAKNSLYLQMNSLRAEDTAVYYCAREGHTAAPFDYWGQGTLVTVSS
VL: DIQMTQSPSSLSASVGDRVTITCKASQNIDKYLNWYQQKPGKAPKSLIYNTNNLQTGVPSRFSGSGSGTDFTLTISSLQPEDIATYYCLQHISRPRTFGTGTKLELK
notes: also called DIVHv4/DIVKv4
Question: With B15 as the binder, how does the EC50 read?
Answer: 8.54 µg/mL

B16: DIVH4/DIVK5 (antibody, human IgG1, V domains shown)
VH: EVQLLESGGGLVQPGGSLRLSCAGSGFTFTDFYMNWVRQAPGKGLEWVGFIRDKAKGYTTEYNPSVKGRFTISRDNAKNSLYLQMNSLRAEDTAVYYCAREGHTAAPFDYWGQGTLVTVSS
VL: DIQMTQSPSSLSASVGDRVTITCKASQNIDKYLNWYQQKPGKSPKLLIYNTNNLQTGVPSRFSGSGSGTDFTLTISSLQPEDIATYYCLQHISRPRTFGTGTKLELK
notes: also called DIVHv4/DIVKv5
Question: For B16, which EC50 is on record?
Answer: 2.39 µg/mL

B17: DIVH5/DIVK1 (antibody, human IgG1, V domains shown)
VH: EVQLLESGGGLVQPGGSLRLSCAGSGFTFTDFYMNWIRQPPGKAPEWLGFIRDKAKGYTTEYNPSVKGRFTISRDNSKNTLYLQMNSLRAEDTAVYYCAREGHTAAPFDYWGQGTLVTVSS
VL: DIQMTQSPSSLSASVGDRVTITCRASQNIDKYLNWYQQKPGKAPKSLIYNTNNLQSGVPSRFSGSGSGTDFTLTISSLQPEDIATYYCLQHISRPRTFGTGTKLELK
notes: also called DIVHv5/DIVKv1
Question: For B17, which EC50 is on record?
Answer: 4.01 µg/mL

B18: DIVH5/DIVK2 (antibody, human IgG1, V domains shown)
VH: EVQLLESGGGLVQPGGSLRLSCAGSGFTFTDFYMNWIRQPPGKAPEWLGFIRDKAKGYTTEYNPSVKGRFTISRDNSKNTLYLQMNSLRAEDTAVYYCAREGHTAAPFDYWGQGTLVTVSS
VL: DIQMTQSPSSLSASVGDRVTITCKASQNIDKYLNWYQQKPGKAPKLLIYNTNNLQTGVPSRFSGSGSGTDFTLTISSLQPEDIATYYCLQHISRPRTFGTGTKLELK
notes: also called DIVHv5/DIVKv2
Question: For B18, which EC50 is on record?
Answer: 2.45 µg/mL

B19: DIVH5/DIVK3 (antibody, human IgG1, V domains shown)
VH: EVQLLESGGGLVQPGGSLRLSCAGSGFTFTDFYMNWIRQPPGKAPEWLGFIRDKAKGYTTEYNPSVKGRFTISRDNSKNTLYLQMNSLRAEDTAVYYCAREGHTAAPFDYWGQGTLVTVSS
VL: DIQMTQSPSSLSASVGDRVTITCRASQNIDKYLNWYQQKPGKAPKLLIYNTNNLQSGVPSRFSGSGSGTDFTLTISSLQPEDIATYYCLQHISRPRTFGTGTKLELK
notes: also called DIVHv5/DIVKv3
Question: For B19, which EC50 is on record?
Answer: 2.55 µg/mL

B20: DIVH5/DIVK4 (antibody, human IgG1, V domains shown)
VH: EVQLLESGGGLVQPGGSLRLSCAGSGFTFTDFYMNWIRQPPGKAPEWLGFIRDKAKGYTTEYNPSVKGRFTISRDNSKNTLYLQMNSLRAEDTAVYYCAREGHTAAPFDYWGQGTLVTVSS
VL: DIQMTQSPSSLSASVGDRVTITCKASQNIDKYLNWYQQKPGKAPKSLIYNTNNLQTGVPSRFSGSGSGTDFTLTISSLQPEDIATYYCLQHISRPRTFGTGTKLELK
notes: also called DIVHv5/DIVKv4
Question: B20 was tested. Which EC50 did it give?
Answer: 4.05 µg/mL
